Results from paper PMC9482650, “Quantitative fragmentomics allow affinity mapping of interactomes” (Nature Communications, 2022).

Legend:
Assay in all cases: holdup assay
Parameters in all cases: key: below the threshold = too weak to quantify, mostly under pKd 3.1 to 4
FRMPD2_2, Q68DX3 = target: FRMPD2_2, Q68DX3
LNX1_1, Q8TBB1 = target: LNX1_1, Q8TBB1
DLG1_1, Q12959 = target: DLG1_1, Q12959
DLG4_3, P78352 = target: DLG4_3, P78352
GRIP1_4, Q9Y3R0 = target: T1, GRIP1_4, Q9Y3R0
T1 sequence (Q9Y3R0 467-571, limits assumed, looked up): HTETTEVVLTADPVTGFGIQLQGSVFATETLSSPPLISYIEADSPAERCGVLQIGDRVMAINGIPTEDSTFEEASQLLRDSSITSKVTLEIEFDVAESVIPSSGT

GRIP2_6, Q9C0E4 = target: GRIP2_6, Q9C0E4
GRIP2_7, Q9C0E4 = target: GRIP2_7, Q9C0E4
FRMPD2_3, Q68DX3 = target: FRMPD2_3, Q68DX3
RADIL, Q96JH8 = target: T2, RADIL, Q96JH8
T2 sequence (Q96JH8 971-1071, limits assumed, looked up): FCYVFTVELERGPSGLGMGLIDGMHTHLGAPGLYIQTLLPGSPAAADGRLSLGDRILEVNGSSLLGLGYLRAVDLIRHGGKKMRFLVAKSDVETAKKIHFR

LAP2, Q96RT1 = target: LAP2, Q96RT1
GORASP1, Q9BQQ3 = target: GORASP1, Q9BQQ3
MAGI1_2, Q96QZ7 = target: MAGI1_2, Q96QZ7
NHERF3_4, Q5T2W1 = target: T3, NHERF3_4, Q5T2W1
T3 sequence (Q5T2W1 373-468, limits assumed, looked up): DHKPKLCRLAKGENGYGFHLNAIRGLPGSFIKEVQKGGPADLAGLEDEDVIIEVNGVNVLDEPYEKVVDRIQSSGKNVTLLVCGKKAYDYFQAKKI

GRIP1_3, Q9Y3R0 = target: T4, GRIP1_3, Q9Y3R0
T4 sequence (Q9Y3R0 247-346, limits assumed, looked up): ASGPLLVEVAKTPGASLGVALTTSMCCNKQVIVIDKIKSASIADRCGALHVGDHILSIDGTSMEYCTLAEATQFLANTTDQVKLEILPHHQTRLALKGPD

LNX1_3, Q8TBB1 = target: LNX1_3, Q8TBB1
LIN7B, Q9HAP6 = target: T5, LIN7B, Q9HAP6
T5 sequence (Q9HAP6 88-185, limits assumed, looked up): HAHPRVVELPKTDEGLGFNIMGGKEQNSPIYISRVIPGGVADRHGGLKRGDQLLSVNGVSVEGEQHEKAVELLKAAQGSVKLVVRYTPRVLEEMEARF

MAGI2_4, Q86UL8 = target: MAGI2_4, Q86UL8
PCLO, Q9Y6V0 = target: T6, PCLO, Q9Y6V0
T6 sequence (Q9Y6V0 4491-4600, limits assumed, looked up): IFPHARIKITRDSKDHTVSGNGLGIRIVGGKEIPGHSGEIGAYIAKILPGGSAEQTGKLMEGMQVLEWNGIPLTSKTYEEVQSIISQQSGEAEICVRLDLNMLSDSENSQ

FRMPD2_1, Q68DX3 = target: FRMPD2_1, Q68DX3
MPP7, Q5T2T1 = target: T7, MPP7, Q5T2T1
T7 sequence (Q5T2T1 134-230, limits assumed, looked up): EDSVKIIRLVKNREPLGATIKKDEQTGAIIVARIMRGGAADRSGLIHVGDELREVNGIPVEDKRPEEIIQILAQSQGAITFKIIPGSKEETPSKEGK

GIPC2, Q8TF65 = target: GIPC2, Q8TF65
MPP6, Q9NZW5 = target: T8, MPP6, Q9NZW5
T8 sequence (Q9NZW5 125-219, limits assumed, looked up): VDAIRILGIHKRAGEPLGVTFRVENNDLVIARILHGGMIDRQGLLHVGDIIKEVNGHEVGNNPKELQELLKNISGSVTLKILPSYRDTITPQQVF

PDZD7_3, Q9H5P4 = target: T9, PDZD7_3, Q9H5P4
T9 sequence (Q9H5P4 857-944, limits assumed, looked up): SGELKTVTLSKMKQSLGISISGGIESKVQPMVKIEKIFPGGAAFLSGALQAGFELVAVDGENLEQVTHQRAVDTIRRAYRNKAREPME

PDZD2_2, O15018 = target: T10, PDZD2_2, O15018
T10 sequence (O15018 329-429, limits assumed, looked up): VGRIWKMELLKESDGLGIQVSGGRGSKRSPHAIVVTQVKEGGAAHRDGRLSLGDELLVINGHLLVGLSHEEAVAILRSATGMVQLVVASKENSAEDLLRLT

APBA1_2, Q02410 = target: T11, APBA1_2, Q02410
T11 sequence (Q02410 742-832, limits assumed, looked up): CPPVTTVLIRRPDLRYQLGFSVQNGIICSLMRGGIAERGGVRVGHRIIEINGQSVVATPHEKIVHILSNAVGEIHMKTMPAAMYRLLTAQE

Inadl_2, Q8NI35 = target: Inadl_2, Q8NI35
CASK, O14936 = target: CASK, O14936
[1] = plain residues with an end cap or a label only (N-terminal biotin on a linker: ahx)
[2] = plain residues with an end cap or a label only (N-terminal biotin on a linker: ttds)

FRMPD2_1, Q68DX3, sequence (Q68DX3 770-861): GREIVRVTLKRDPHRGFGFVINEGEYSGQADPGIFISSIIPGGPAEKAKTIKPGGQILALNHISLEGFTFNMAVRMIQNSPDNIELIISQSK
FRMPD2_2, Q68DX3, sequence (Q68DX3 944-1038): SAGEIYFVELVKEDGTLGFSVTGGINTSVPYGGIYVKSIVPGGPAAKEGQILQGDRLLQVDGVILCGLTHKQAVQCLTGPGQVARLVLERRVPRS
GORASP1, Q9BQQ3, sequence (Q9BQQ3 1-208): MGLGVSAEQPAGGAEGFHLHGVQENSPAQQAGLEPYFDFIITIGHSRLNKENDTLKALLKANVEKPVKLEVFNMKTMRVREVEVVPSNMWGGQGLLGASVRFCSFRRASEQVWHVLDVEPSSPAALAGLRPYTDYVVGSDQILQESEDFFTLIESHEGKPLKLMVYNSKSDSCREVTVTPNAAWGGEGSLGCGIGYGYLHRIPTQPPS
GIPC2, Q8TF65, sequence (Q8TF65 112-203): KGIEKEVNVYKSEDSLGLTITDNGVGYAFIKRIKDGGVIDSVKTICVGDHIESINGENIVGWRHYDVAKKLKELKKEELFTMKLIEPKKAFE
Inadl_2, Q8NI35, sequence (Q8NI35 238-335): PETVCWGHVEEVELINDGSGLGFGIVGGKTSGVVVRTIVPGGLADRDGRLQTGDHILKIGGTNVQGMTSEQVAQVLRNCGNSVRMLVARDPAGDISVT
GRIP2_7, Q9C0E4, sequence (Q9C0E4 934-1023): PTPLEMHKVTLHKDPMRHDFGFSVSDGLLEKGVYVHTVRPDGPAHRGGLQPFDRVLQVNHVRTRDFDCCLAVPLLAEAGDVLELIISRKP
MAGI2_4, Q86UL8, sequence (Q86UL8 772-865): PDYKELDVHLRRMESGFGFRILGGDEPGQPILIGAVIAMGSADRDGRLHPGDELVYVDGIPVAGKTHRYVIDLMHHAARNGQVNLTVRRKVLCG
DLG4_3, P78352, sequence (P78352 306-403): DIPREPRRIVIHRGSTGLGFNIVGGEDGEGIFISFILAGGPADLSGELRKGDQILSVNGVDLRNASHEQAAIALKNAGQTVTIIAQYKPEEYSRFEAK
GRIP2_6, Q9C0E4, sequence (Q9C0E4 648-740): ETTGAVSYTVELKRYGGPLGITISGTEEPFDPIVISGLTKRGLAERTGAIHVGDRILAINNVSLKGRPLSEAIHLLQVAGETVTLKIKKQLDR
LNX1_1, Q8TBB1, sequence (Q8TBB1 261-371): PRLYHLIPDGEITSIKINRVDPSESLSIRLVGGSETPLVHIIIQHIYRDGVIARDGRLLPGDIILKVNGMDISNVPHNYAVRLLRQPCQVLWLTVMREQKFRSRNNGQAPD
LNX1_3, Q8TBB1, sequence (Q8TBB1 500-596): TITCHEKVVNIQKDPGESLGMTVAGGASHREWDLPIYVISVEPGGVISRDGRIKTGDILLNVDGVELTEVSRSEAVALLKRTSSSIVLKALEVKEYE
LAP2, Q96RT1, sequence (Q96RT1 other isoform, or with tags, fused parts or gaps): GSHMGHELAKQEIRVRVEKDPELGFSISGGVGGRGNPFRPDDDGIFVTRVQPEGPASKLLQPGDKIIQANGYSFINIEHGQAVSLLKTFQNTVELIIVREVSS
MAGI1_2, Q96QZ7, sequence (Q96QZ7 456-580): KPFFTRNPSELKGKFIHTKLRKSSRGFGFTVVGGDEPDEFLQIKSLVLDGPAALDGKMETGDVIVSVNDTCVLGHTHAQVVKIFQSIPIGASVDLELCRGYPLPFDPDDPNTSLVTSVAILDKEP
CASK, O14936, sequence (O14936 487-570): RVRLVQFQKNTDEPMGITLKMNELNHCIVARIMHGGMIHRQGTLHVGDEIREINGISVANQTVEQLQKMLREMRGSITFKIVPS
FRMPD2_3, Q68DX3, sequence (Q68DX3 1073-1166): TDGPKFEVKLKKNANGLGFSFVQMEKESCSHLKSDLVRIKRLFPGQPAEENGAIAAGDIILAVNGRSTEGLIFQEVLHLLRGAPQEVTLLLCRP

## SDSSGQEYSL [KCTD3, Q9Y597]
FRMPD2_2, Q68DX3; [1]
  pKd: below the threshold
LNX1_1, Q8TBB1; [1]
  pKd: below the threshold
DLG1_1, Q12959; [1]
  pKd: below the threshold
DLG4_3, P78352; [1]
  pKd: below the threshold
GRIP1_4, Q9Y3R0; [1]
  pKd: below the threshold
GRIP2_6, Q9C0E4; [1]
  pKd: 3.6
GRIP2_7, Q9C0E4; [1]
  pKd: below the threshold
FRMPD2_3, Q68DX3; [1]
  pKd: below the threshold
RADIL, Q96JH8; [1]
  pKd: below the threshold
LAP2, Q96RT1; [1]
  pKd: below the threshold
GORASP1, Q9BQQ3; [1]
  pKd: below the threshold
MAGI1_2, Q96QZ7; [1]
  pKd: below the threshold
NHERF3_4, Q5T2W1; [1]
  pKd: below the threshold
GRIP1_3, Q9Y3R0; [1]
  pKd: below the threshold
LNX1_3, Q8TBB1; [1]
  pKd: below the threshold
LIN7B, Q9HAP6; [1]
  pKd: below the threshold
MAGI2_4, Q86UL8; [1]
  pKd: below the threshold
PCLO, Q9Y6V0; [1]
  pKd: below the threshold
FRMPD2_1, Q68DX3; [1]
  pKd: below the threshold
MPP7, Q5T2T1; [1]
  pKd: 4.1
GIPC2, Q8TF65; [1]
  pKd: 3.64
MPP6, Q9NZW5; [1]
  pKd: 3.83
PDZD7_3, Q9H5P4; [1]
  pKd: below the threshold
PDZD2_2, O15018; [1]
  pKd: below the threshold
APBA1_2, Q02410; [1]
  pKd: 3.65
Inadl_2, Q8NI35; [1]
  pKd: below the threshold
CASK, O14936; [1]
  pKd: below the threshold

## ESLLLGPSNF [SHROOM4, Q9ULL8]
FRMPD2_2, Q68DX3; [1]
  pKd: below the threshold
LNX1_1, Q8TBB1; [1]
  pKd: below the threshold
DLG1_1, Q12959; [1]
  pKd: below the threshold
DLG4_3, P78352; [1]
  pKd: below the threshold
GRIP1_4, Q9Y3R0; [1]
  pKd: below the threshold
GRIP2_6, Q9C0E4; [1]
  pKd: below the threshold
GRIP2_7, Q9C0E4; [1]
  pKd: below the threshold
FRMPD2_3, Q68DX3; [1]
  pKd: below the threshold
RADIL, Q96JH8; [1]
  pKd: below the threshold
LAP2, Q96RT1; [1]
  pKd: below the threshold
GORASP1, Q9BQQ3; [1]
  pKd: below the threshold
MAGI1_2, Q96QZ7; [1]
  pKd: below the threshold
NHERF3_4, Q5T2W1; [1]
  pKd: below the threshold
GRIP1_3, Q9Y3R0; [1]
  pKd: below the threshold
LNX1_3, Q8TBB1; [1]
  pKd: below the threshold
LIN7B, Q9HAP6; [1]
  pKd: below the threshold
MAGI2_4, Q86UL8; [1]
  pKd: below the threshold
PCLO, Q9Y6V0; [1]
  pKd: below the threshold
FRMPD2_1, Q68DX3; [1]
  pKd: below the threshold
MPP7, Q5T2T1; [1]
  pKd: below the threshold
GIPC2, Q8TF65; [1]
  pKd: below the threshold
MPP6, Q9NZW5; [1]
  pKd: below the threshold
PDZD7_3, Q9H5P4; [1]
  pKd: below the threshold
PDZD2_2, O15018; [1]
  pKd: below the threshold
APBA1_2, Q02410; [1]
  pKd: below the threshold
Inadl_2, Q8NI35; [1]
  pKd: below the threshold
CASK, O14936; [1]
  pKd: below the threshold

## DKDPHSETAL [TMIGD1, Q6UXZ0]
FRMPD2_2, Q68DX3; [2]
  pKd: below the threshold
LNX1_1, Q8TBB1; [2]
  pKd: below the threshold
DLG1_1, Q12959; [2]
  pKd: 3.77
DLG4_3, P78352; [2]
  pKd: below the threshold
GRIP1_4, Q9Y3R0; [2]
  pKd: below the threshold
GRIP2_6, Q9C0E4; [2]
  pKd: below the threshold
GRIP2_7, Q9C0E4; [2]
  pKd: below the threshold
FRMPD2_3, Q68DX3; [2]
  pKd: below the threshold
RADIL, Q96JH8; [2]
  pKd: below the threshold
LAP2, Q96RT1; [2]
  pKd: 3.66
GORASP1, Q9BQQ3; [2]
  pKd: below the threshold
MAGI1_2, Q96QZ7; [2]
  pKd: below the threshold
NHERF3_4, Q5T2W1; [2]
  pKd: 3.52
GRIP1_3, Q9Y3R0; [2]
  pKd: below the threshold
LNX1_3, Q8TBB1; [2]
  pKd: below the threshold
LIN7B, Q9HAP6; [2]
  pKd: below the threshold
MAGI2_4, Q86UL8; [2]
  pKd: below the threshold
PCLO, Q9Y6V0; [2]
  pKd: below the threshold
FRMPD2_1, Q68DX3; [2]
  pKd: below the threshold
MPP7, Q5T2T1; [2]
  pKd: below the threshold
GIPC2, Q8TF65; [2]
  pKd: below the threshold
MPP6, Q9NZW5; [2]
  pKd: below the threshold
PDZD7_3, Q9H5P4; [2]
  pKd: 4.07
PDZD2_2, O15018; [2]
  pKd: 3.73
APBA1_2, Q02410; [2]
  pKd: 3.65
Inadl_2, Q8NI35; [2]
  pKd: below the threshold
CASK, O14936; [2]
  pKd: below the threshold
